Measured values reported in PMC3681700 (Molecular Biology of the Cell, 2013).
Where two headings read alike, the source gives them in different places.

What was measured:
[1] = biological target: T1, Taxol-stabilized microtubules assembled from bovine brain tubulin (bovine, UniProt Q6B856 1-445); experiment: co-sedimentation
[2] = biological target: T1, Taxol-stabilized microtubules assembled …

B1: MAP65-4 (GFP-MAP65-4) (natural protein, Arabidopsis thaliana, UniProt Q9LZY0 1-677, looked up)
chain: MIRNSTEQFSRIETTCGLLLRQLQEIWNEMGETEDEKDASLADIEKECLSVYKRKVEEASRGKANLLKEIAVGRAEIAAIGSSMGGQEIHSNSRLGENLKEELENVNVQLDGLRKRKAERMIRFNEVIDQLLKLSLQLGNPTDYLKKFAAEETDLSLQRLEELRSQLGELQNEKSKRLEEVECLLKTLNSLCSVLGEDFKGMIRGIHSSLVDSNTRDVSRSTLDKLDMMIVNLREAKLQRMQKVQDLAVSLLELWNLLDTPAEEQKIFHNVTCSIALTESEITEANILSVASIKRVEDEVIRLSKIKITKIKEVILRKRLELEEISRKMHMATEVLKSENFSVEAIESGVKDPEQLLEQIDSEIAKVKEEASSRKEILEKVEKWMSACEEESWLEEYNRDDNRYNAGRGAHLTLKRAEKARLLVNKLPGMVEALTAKVTAWENERGNEFLYDGVRVLSMLGQYKTVWEEKEHEKQRQRDMKKLHGQLITEQEALYGSKPSPNKSGKKPLRTPVNAAMNRKLSLGGAMLHQSLKHEKATLNSKRTKYYDQNATSRRDSALPTLSGRRNSELPGRIRSKNVPVAGKAARSPMLRKPLSPVTSNILNSPEDHHKDAYTTKERILTPKTNEEKKRAVPTTPAASVAMTEATTPFTPAVEKRMDEEDVIVEYSFEEVRAGFC
B1 was tested, and the Kd [1] was 19 ± 2 nM.

B2: MAP65-1 (GFP-MAP65-1) (natural protein, Arabidopsis thaliana, UniProt Q9FLP0 1-587, looked up)
chain: MAVTDTESPHLGEITCGTLLEKLQEIWDEVGESDDERDKLLLQIEQECLDVYKRKVEQAAKSRAELLQTLSDANAELSSLTMSLGDKSLVGIPDKSSGTIKEQLAAIAPALEQLWQQKEERVREFSDVQSQIQKICGDIAGGLSNEVPIVDESDLSLKKLDDFQSQLQELQKEKSDRLRKVLEFVSTVHDLCAVLGLDFLSTVTEVHPSLDEDTSVQSKSISNETLSRLAKTVLTLKDDKKQRLQKLQELATQLIDLWNLMDTPDEERELFDHVTCNISSSVDEVTVPGALARDLIEQAEVEVDRLDQLKASRMKEIAFKKQSELEEIYARAHVEVNPESARERIMSLIDSGNVEPTELLADMDSQISKAKEEAFSRKDILDRVEKWMSACEEESWLEDYNRDQNRYSASRGAHLNLKRAEKARILVSKIPAMVDTLVAKTRAWEEEHSMSFAYDGVPLLAMLDEYGMLRQEREEEKRRLREQKKVQEQPHVEQESAFSTRPSPARPVSAKKTVGPRANNGGANGTHNRRLSLNANQNGSRSTAKEAGRRETLNRPAAPTNYVAISKEEAASSPVSGAADHQVPASP
B2 was tested, and the Kd [1] was 21 ± 2 nM.

B3: Ase1 (natural protein, yeast, UniProt P50275 1-885, looked up)
chain: METATSSPLPIKSRRNSENSGSTTVIPHMNPSLATPLTVSTMVNQSNSKEFMKLTPVRIRDFGSPLKNVSTNYHFLDSENGKGNTMDNMYRENFILISKDLEKLLENLNVIYQNIGYSNTEIITKEKIIFTTISNSIKQFFEQADEELKRLSAENGIEQDILNNILERINDPSGIKTIPDLYIRNAILLQESKTVPQSPKKPLSLLSKKAALDTAKKFVLGSFLPRLRDYLKSLITLKHLIQSVKENLPGLTEADNEAIAEFPELSTLTAYLLQIENGKGDIGLSMKFIIDNRKDILKGSAFKTINEESVKHMNEVIKIYEEEYERRFKSVLTKKVSISSICEQLGTPLATLIGEDFEQDLRSYGEEENSTSEIPNFHPVDRERMSKIDITLEKLQAIHKERADKKRLLMEQCQKLWTRLKISQEYIKTFMRNNSSLSTESLGRISKEVMRLEAMKKKLIKKLISDSWDKIQELWRTLQYSEESRSKFIIVFEELRNSATTLQEDELLLETCENELKRLEEKLTLYKPILKLISDFESLQEDQEFLERSSKDSSRLLSRNSHKILLTEEKMRKRITRHFPRVINDLRIKLEEADGLFDQPFLFKGKPLSEAIDIQQQEIEAKYPRCRVRMQRSKKGKCGANKENKVIKNTFKATESSIRVPIGLNLNDANITYKTPSKKTIQGLTKNDLSQENSLARHMQGTTKLSSPNRRATRLLAPTVISRNSKGNIERPTLNRNRSSDLSSSPRINHTHGEHAVKPRQLFPIPLNKVDTKGSHIPQLTKEKALELLKRSTGTTGKENVRSPERKSSLEDYAQKLSSPYKEPEHSIYKLSMSPEGKFQLNIQQKDIESGFDDTSMMEDENDKDFITWKNEQVSKLNGFSFTDI
With B3 the Kd [2] was 41 ± 7 nM.
